For this assay, the target named is human/mouse chimeric PD-1 protein (humanized PD-1 of B-hPD-1 mice) (human/mouse chimeric). Description: flow cytometry on T lymphocytes (CD3+) of F1 generation B-hPD-1 mice. On the technique in general: A flow cytometer gives signals particle by particle.
human/mouse chimeric PD-1 protein (humanized PD-1 of B-hPD-1 mice) (human/mouse chimeric), sequence (chain, as listed by the source mutant limits assumed): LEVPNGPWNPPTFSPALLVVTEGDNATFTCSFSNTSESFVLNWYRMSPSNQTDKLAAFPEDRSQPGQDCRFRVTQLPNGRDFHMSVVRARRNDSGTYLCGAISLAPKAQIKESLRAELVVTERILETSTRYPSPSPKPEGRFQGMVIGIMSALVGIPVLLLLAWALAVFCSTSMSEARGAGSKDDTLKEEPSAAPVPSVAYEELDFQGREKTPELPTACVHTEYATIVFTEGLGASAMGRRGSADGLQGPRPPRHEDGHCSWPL

Turning to “anti-human PD-1 antibody hPD-1 FITC (Biolegend, article number 329904)”, the percent of double-positive cells (anti-human PD-1 and anti-mouse CD3) is 92%.

(Values after US20190387724A1.)
